The assay addresses RAIDD DD (UniProt P78560). Description: native gel or EMSA; native-PAGE on a PhastSystem, 8-25% acrylamide gradient gels, Coomassie staining; complexes in 20 mM Tris pH 8.0, 50 mM NaCl; pre-incubated with or without peptide for 1 hour at room temperature; complex band without peptide taken as 100%. Background: Mobility shift assays separate free from complexed probe on a gel.

Chain of RAIDD DD (P78560 94-199): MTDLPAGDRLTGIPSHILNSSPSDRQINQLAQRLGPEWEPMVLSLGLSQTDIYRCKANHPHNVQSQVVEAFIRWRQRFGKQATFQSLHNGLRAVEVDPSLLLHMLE

As for “TAT-Y814A (previously generated TAT-fused PIDD peptide with the mutation Y814A)”, the percent of RAIDD DD:PIDD DD complex formation blocked at 30 μM peptide is 50%.

The record behind these values is paper PMC4977500.
